Sequences and labels used below:
B1: glmS ribozyme (parent)
chain: AUAAAAGCGCCAGAACUACAGAAAUGUAGUUGACGAGGAGGAGGUUUAUCGAAUUUUCGGCGGAUGCCUCCAAA

Common to all, as to conditions: with glucosamine-6-phosphate
Variants of B1 are the subject of series [1]. The series is described as follows: self-cleavage kobs at 160 uM GlcN6P; higher = faster cleavage; RNA array. The gist of the method:
(§1)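 Glucosamine-6-phosphate in HEPES/KCl/Mg(OAc)2 buffer, at 40 μM to 10 mM, was flowed over barcoded ribozyme variants transcribed in situ by E. coli RNA polymerase on sequenced MiSeq chips. Tracking was through a hybridised Cy3 probe at 37 °C. kobs, kcat and KM came from exponential decay fits and weighted Michaelis–Menten fits of normalised per-tile medians.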

Variants of B1 are the subject of series [2]. Kind of series: self-cleavage kobs at 640 uM GlcN6P; higher = faster cleavage; RNA array. In outline: as §1
Series [3] covers variants of B1. Kind of series: self-cleavage kobs at 2500 uM GlcN6P; higher = faster cleavage; RNA array. The gist of the method: as §1
Series [4] covers variants of B1. Kind of series: self-cleavage kobs at 10000 uM GlcN6P; higher = faster cleavage; RNA array. In outline:
as §1

± gives the standard error. This sample holds only a part of the variants without activity.

For G29C U56G G66C, the “self-cleavage kobs at 160 uM GlcN6P” value with glucosamine-6-phosphate [1] was < 1e-05 s⁻¹. Also, the “self-cleavage kobs at 640 uM GlcN6P” value with glucosamine-6-phosphate [2] is < 1e-05 s⁻¹.

G38C G43A: in the series with glucosamine-6-phosphate [1], the “self-cleavage kobs at 160 uM GlcN6P” value was < 1e-05 s⁻¹. Further, in the series with glucosamine-6-phosphate [2], the “self-cleavage kobs at 640 uM GlcN6P” value was < 1e-05 s⁻¹. In the series with glucosamine-6-phosphate [3], the “self-cleavage kobs at 2500 uM GlcN6P” value was < 1e-05 s⁻¹. Besides, in the series with glucosamine-6-phosphate [4], the “self-cleavage kobs at 10000 uM GlcN6P” value is < 1e-05 s⁻¹.

Consider A18C U56C U65G, for which the “self-cleavage kobs at 640 uM GlcN6P” value with glucosamine-6-phosphate [2] was 5.82e-05 ± 2.6e-05 s⁻¹. For the same variant, the “self-cleavage kobs at 2500 uM GlcN6P” value with glucosamine-6-phosphate [3] was 0.000131 ± 6.1e-05 s⁻¹.

For A14U G21A U56G, in the series with glucosamine-6-phosphate [1], the “self-cleavage kobs at 160 uM GlcN6P” value is 0.00134 ± 0.00038 s⁻¹. Moreover, in the series with glucosamine-6-phosphate [2], the “self-cleavage kobs at 640 uM GlcN6P” value came to 0.0043 ± 0.0012 s⁻¹. For the same variant, the “self-cleavage kobs at 2500 uM GlcN6P” value in the series with glucosamine-6-phosphate [3] amounted to 0.00645 ± 0.0026 s⁻¹.

As to C34G U56C, the “self-cleavage kobs at 160 uM GlcN6P” value with glucosamine-6-phosphate [1] was < 1e-05 s⁻¹.

In the case of G29U C34G G38U G44U, in the series with glucosamine-6-phosphate [1], the “self-cleavage kobs at 160 uM GlcN6P” value was < 1e-05 s⁻¹. Besides, in the series with glucosamine-6-phosphate [2], the “self-cleavage kobs at 640 uM GlcN6P” value is < 1e-05 s⁻¹.

As to C11A A42G A53C, the “self-cleavage kobs at 160 uM GlcN6P” value with glucosamine-6-phosphate [1] was < 1e-05 s⁻¹.

In the case of G7U G32U A33C U47A G59A, in the series with glucosamine-6-phosphate [1], the “self-cleavage kobs at 160 uM GlcN6P” value was < 1e-05 s⁻¹.

With G62C U65G, the “self-cleavage kobs at 160 uM GlcN6P” value with glucosamine-6-phosphate [1] was < 1e-05 s⁻¹. For the same variant, the “self-cleavage kobs at 640 uM GlcN6P” value in the series with glucosamine-6-phosphate [2] is < 1e-05 s⁻¹.

In the case of A14C U47A C58G C67G U69C, the “self-cleavage kobs at 160 uM GlcN6P” value with glucosamine-6-phosphate [1] stood at 7.17e-05 ± 3.1e-05 s⁻¹. Further, in the series with glucosamine-6-phosphate [2], the “self-cleavage kobs at 640 uM GlcN6P” value worked out at 9.78e-05 ± 3.1e-05 s⁻¹.

For G35U G43U A53C C70A, the “self-cleavage kobs at 160 uM GlcN6P” value with glucosamine-6-phosphate [1] is < 1e-05 s⁻¹.

For G29A A39U G43U, the “self-cleavage kobs at 160 uM GlcN6P” value with glucosamine-6-phosphate [1] was < 1e-05 s⁻¹.

For C11A G13A A39G, in the series with glucosamine-6-phosphate [1], the “self-cleavage kobs at 160 uM GlcN6P” value is < 1e-05 s⁻¹. Further, the “self-cleavage kobs at 640 uM GlcN6P” value in the series with glucosamine-6-phosphate [2] is < 1e-05 s⁻¹.

As for A14G A33G G60U, the “self-cleavage kobs at 160 uM GlcN6P” value with glucosamine-6-phosphate [1] is < 1e-05 s⁻¹. Further, in the series with glucosamine-6-phosphate [2], the “self-cleavage kobs at 640 uM GlcN6P” value was < 1e-05 s⁻¹. Also, in the series with glucosamine-6-phosphate [3], the “self-cleavage kobs at 2500 uM GlcN6P” value is < 1e-05 s⁻¹.

Consider G35A A48G G51C A64C, for which, in the series with glucosamine-6-phosphate [1], the “self-cleavage kobs at 160 uM GlcN6P” value is < 1e-05 s⁻¹.

For the variant G13U A15U C70U, the “self-cleavage kobs at 640 uM GlcN6P” value with glucosamine-6-phosphate [2] is 3.4e-05 ± 9.4e-06 s⁻¹. Further, in the series with glucosamine-6-phosphate [3], the “self-cleavage kobs at 2500 uM GlcN6P” value was found to be 7.46e-05 ± 2.2e-05 s⁻¹. Also, the “self-cleavage kobs at 10000 uM GlcN6P” value in the series with glucosamine-6-phosphate [4] is 5.88e-05 ± 1.3e-05 s⁻¹.

For G35C G60A C68A, the “self-cleavage kobs at 160 uM GlcN6P” value with glucosamine-6-phosphate [1] is < 1e-05 s⁻¹. In the series with glucosamine-6-phosphate [2], the “self-cleavage kobs at 640 uM GlcN6P” value was < 1e-05 s⁻¹.

As for U30G A39U A42U, in the series with glucosamine-6-phosphate [1], the “self-cleavage kobs at 160 uM GlcN6P” value was 0.000126 ± 5.7e-05 s⁻¹.

For A12C U31G A42C U69G, the “self-cleavage kobs at 160 uM GlcN6P” value with glucosamine-6-phosphate [1] came out at 0.000164 ± 3.1e-05 s⁻¹. For the same variant, the “self-cleavage kobs at 2500 uM GlcN6P” value in the series with glucosamine-6-phosphate [3] stood at 0.00194 ± 0.00028 s⁻¹.

Regarding G9A G37A U46C, the “self-cleavage kobs at 640 uM GlcN6P” value with glucosamine-6-phosphate [2] is < 1e-05 s⁻¹.

As to C10G G41C G63U, the “self-cleavage kobs at 160 uM GlcN6P” value with glucosamine-6-phosphate [1] is < 1e-05 s⁻¹. Further, the “self-cleavage kobs at 640 uM GlcN6P” value with glucosamine-6-phosphate [2] was < 1e-05 s⁻¹.

For A6C G13C U47G A48U U65A, in the series with glucosamine-6-phosphate [2], the “self-cleavage kobs at 640 uM GlcN6P” value was < 1e-05 s⁻¹.

As for A48G A52C U55C, the “self-cleavage kobs at 160 uM GlcN6P” value with glucosamine-6-phosphate [1] is < 1e-05 s⁻¹. Further, the “self-cleavage kobs at 640 uM GlcN6P” value in the series with glucosamine-6-phosphate [2] is < 1e-05 s⁻¹.

On to G51C U56C, for which the “self-cleavage kobs at 160 uM GlcN6P” value in the series with glucosamine-6-phosphate [1] is < 1e-05 s⁻¹. In addition, the “self-cleavage kobs at 640 uM GlcN6P” value in the series with glucosamine-6-phosphate [2] is < 1e-05 s⁻¹. For the same variant, in the series with glucosamine-6-phosphate [3], the “self-cleavage kobs at 2500 uM GlcN6P” value is < 1e-05 s⁻¹. Besides, in the series with glucosamine-6-phosphate [4], the “self-cleavage kobs at 10000 uM GlcN6P” value is < 1e-05 s⁻¹.

In the case of C8G G59A C70G, in the series with glucosamine-6-phosphate [1], the “self-cleavage kobs at 160 uM GlcN6P” value was < 1e-05 s⁻¹.

For A39C G43A G66A, the “self-cleavage kobs at 640 uM GlcN6P” value in the series with glucosamine-6-phosphate [2] is < 1e-05 s⁻¹.

For C8A C11A G37U G41C A53C G63C, the “self-cleavage kobs at 640 uM GlcN6P” value with glucosamine-6-phosphate [2] is < 1e-05 s⁻¹. Besides, in the series with glucosamine-6-phosphate [3], the “self-cleavage kobs at 2500 uM GlcN6P” value is < 1e-05 s⁻¹.

Turning to A15U G41C G44U A48U U49A G51U C67U, the “self-cleavage kobs at 640 uM GlcN6P” value with glucosamine-6-phosphate [2] is < 1e-05 s⁻¹.

As to G38U G60C, in the series with glucosamine-6-phosphate [1], the “self-cleavage kobs at 160 uM GlcN6P” value is < 1e-05 s⁻¹. The “self-cleavage kobs at 640 uM GlcN6P” value in the series with glucosamine-6-phosphate [2] is < 1e-05 s⁻¹.

For the variant A33G A39U A64U C70G, in the series with glucosamine-6-phosphate [1], the “self-cleavage kobs at 160 uM GlcN6P” value is < 1e-05 s⁻¹. Further, in the series with glucosamine-6-phosphate [3], the “self-cleavage kobs at 2500 uM GlcN6P” value is < 1e-05 s⁻¹.

With A6U C8A U31G, the “self-cleavage kobs at 640 uM GlcN6P” value with glucosamine-6-phosphate [2] was < 1e-05 s⁻¹. Also, in the series with glucosamine-6-phosphate [3], the “self-cleavage kobs at 2500 uM GlcN6P” value is < 1e-05 s⁻¹.
